Test results as given in the DeepSol protein solubility set.

Test: soluble on expression in E. coli; label from the status in PepcDB or PDB records
In the case of “MVSTESEIAVRIRGIYSTALTKLLMDRGFKIVQPSDVIAERFGIEKSYEDFDVDIYDKNHGVTIVGTKVEAVKKVFEEEFIDVFFRKLPYKLHGIYKGLVVKRDDRFVYVDIGNVIGTVLIEELPDAAEGDEVVVQVKKHNVLPHLSTLITIPGDYAVLIPKPIGVQRHVKISRKIKDPEERERLRILGLSVDLGEWGVLWRTAAAYKDWNTLRDELVRLSKIADKLKEAEKFSAPAEIIEGREIYEIEFGGGVKKKLDEIRNEVVPTIEGHHQFKSYDPEFTLAVDVAEGILAKLPSQRQKISKGFLEAIITSKGPKVGWIFTLNHVKPDGQIIKIGPGEVIEVSTDPLKVTIKRYLRPGKFYDGLEVPIESGDYAITEIEAGKWWFVHRYYDKDGNLKGEFYNINTPVEIYPDKARYVDLEVDIVRWPDGKKEIIDKEKLKEHYEEGIISEKLYKATLRIAQEVYDRLLEHHHHHH”, the “soluble on expression in E. coli” value is reported as “not soluble”. With “SLRTYFAQRAEMEQLAATEAMLRRQIADLEEQQVKLADPAYIAAQARERLGFVMPGDIPFQVQLPSTPLAPPQPGSDAATATNNEPWYTALWHTIADDPHLPPAAPPAPEPGRPGPLPPASPNPEQPGG” the “soluble on expression in E. coli” value was “soluble”. With “MRYNEKELQALSRQPAEMAAELGMRGPKKGSVLKRRLVKLVVNFLFYFRTDEAEPVGALLLERCRVVREEPGTFSISFIEDPERKYHFECSSEEQCQEWMEALRRASYEFMRRSLIFYRNEIRKVTGKDPLEQFGISEEARFQLSGLQA” the “soluble on expression in E. coli” value was “soluble”. With “LYLKRATHRIADGIGVVKASKLMGGSIRERVTGIDVMDNFLEYANQHKERIFLYGAKQEVVEAAAKNIQRQYPGIVISGILHGYTKKKQQEIVEQINKAEPRFVFVALGSPKQEIFLEQTIDHLTANVFLDVGGTFDVLAGSVKRAPEFYINHNLEWLYRCLTMKRYDRLMQIPKYIYLTIKYRNNKSRGQ” the “soluble on expression in E. coli” value was “not soluble”. With “MLDDVLALIREHDRFFITTHLGPDGDAVGSQLALGRFLEKMGKSVAMVNADEVDYNLDWMPGAGDIAVFDGSLGQHEALAEAEVAFVLDTNDEERIGKVGSLVRDATATTVLVDHHLEPEHWFDVFFVREEAAATGELVYEIIDGLAPDLIDEGIATALYTAIMTDTGSFRYSSVTPALHRSVADILERGGIGPAPIHETIYDRKSMPGLRLLGRMLNRIRLRYNGQLGYSVVTQRMVEDTGASWDDKQGFVNYVLSIEDVKTALLFSETDDGAKISFRSEADVRVDQWARHFGGGGHRNAAGAYVKRPTFEKTIETVIDAASDYIAFDARHAPDDDLSPEDQSYLETLLDDPSDSPLEHHHHHH” the “soluble on expression in E. coli” value was “not soluble”. With “MSVSHAQLKAFHAVAVYGSFTRAAERLFLTQPAVSDQVRKLEERYGVLLFHRNKRSVRLSELGERLLAVTQRLFAIEAEAEELLSASSALQTGTLTLAVDAPVHVLPQIARFCERYPGIAVRVETGNTDESLQRLFSYQADLALLGRDVSDERLLSLTLRNDPIVAFVSLSHPWAGRESIRLADLDDMPLVLREQGSVTRQTLEEEMSRAGLRICPAIQVEGREASREAVVAGIGVGVVSAAEFGADTRVHALPIVDCQRRLTETLVCLREQRSRRIVETFLDLVGEDLPAPS” the “soluble on expression in E. coli” value was “not soluble”. For “MPDKKTLWMLNELEGFEKPKIKLEQYATSSELAVSMMEMIDETIGFEGKKLIDIGCGCGMLMTTAATMYELETVLGVDIDDEALKICSRNLETAEVQDRCELLQADILDPESDLPRGTFDVAVINPPFGTKNNAGIDMQFVQIGLQMVRPGGSVFSLHKSSTRDYILKNAKKWDGVGAECCAEMRWQLPATYKFHKQKAVDIAVDLIHFKKLDS”, the “soluble on expression in E. coli” value was “soluble”. For “HEEHLMVPKGVEVYEINGPYFFGIATKFEEIMSELGDRPKVRIVRMRKVPFIDSTGIHNLTNLCEMSKKENIQIVLSGVNEKVHQILEKSGFNELLGKENICPNINVALEKAK”, the “soluble on expression in E. coli” value was “not soluble”. In the case of “MGHHHHHHSHMAHYLFNPFYLRLDCDLSKAYIHRIFASFYMEKEADAHTNEKRSKPMTQQYIVEPKKGLGLKLKKGQILKVVDVEGQQVADFVAYHAKDSYEHLDQGATIDAIHSIHVKVSDHLYSNPVLSRWLPLIEDTGPASMICCWPACRPDIEQALIWEAKRMSFRIRAMTICAVRLSSLAYRSPTCITHLRYCMDTVLDEEGNLSVETPLSDAGDYVRLRAEMDLIVAFSSCPRCNRDIQWRQCDIHTG”, the “soluble on expression in E. coli” value is reported as “not soluble”. With “MHILVTGAAGFIGSHTVLELLNSGYTVLCIDNFANAISDEHGNAISLKRVAQLTGKDVPFQNVDVCDEAALEKVFSENKFDGIIHLAALKAVGESVAKPLQYYSNNLVASLNLIQMCLKYNVKNFVFSSSATVYGPPSELPITEKSQTGQGITNPYGQTKYMMEQILIDVGKANPEWNVVLLRYFNPVGAHKSGLIGEDPKGVPNNLMPYVSQVAIGKLPVLTIYGDQFDTVDGTGVRDYIHVVDLAKGHVKAFDRIKTVGNIGTEIYNLGTGVGYSVRQMVDALKKVSGRDIPVKIGVPRPGDVASVYCDPSLAQEKLGWRAETGLEEMCADLWNWQTKNPQGFSA” the “soluble on expression in E. coli” value was “not soluble”. In the case of “MADFITRAIELDEQYSQAILGINDQNLKVLENLLDCTIFVRGTRATLSGRDFEVSRGIRVLQELQSMAKRGHAISPDAVKNAVAIVAEDTPHSVNAVLASDIVARRGKVIRAKTLGQKDYVDAIDHNTIVFGLGPAGSGKTYLAMAKAVQALQAKQVNRIILTRPAVEAGEKLGFLPGTLNEKIDPYLRPLHDALRDMVDPEIIPKLMEAGIVEVAPLAYMRGRTLNDAFVILDEAQNTTPAQMKMFLTRLGFGSKMVVTGDITQVDLPGGQKSGLRLVRDILRGVEGVHFAELGSDDVVRHQLVGRIVDAYDAYEEQLKDK”, the “soluble on expression in E. coli” value is reported as “not soluble”. In the case of “MGSDKIHHHHHHMTVADLVAGLRESRGFRHKTDIVDVVGSLAKRLPRGKRDLAQAVALGDDCAALADGDGYLLFAIEGMVSDFVSAMPWFAGYSSVMVNVSDIYAMGGRPLAVVDALWSQGIGAAEEVLAGMAAASVAYGVPIVGGHTNTRSEAAQLAVSIIGRARALLSSFNAKPGDSLMMAVDLRGRFEEPYPFWNASVDAPPERLRADLELLPQLAENGLCDAAKDISMAGTLGTALMLLECSQVGARIDLACIPKPEGVPLERWVSAFPSFGYLLSVRPEHVETVRAKFSARSLACSVIGSVDATSQVVLHRQDDAATLWDFQREPFIIGKDEVK”, the “soluble on expression in E. coli” value is reported as “not soluble”. In the case of “MRVKHFELLTDEGKTFTHVDLYGKYTILFFFPKAGTSGCTREAVEFSRENFEKAQVVGISRDSVEALKRFKEKNDLKVTLLSDPEGILHEFFNVLENGKTVRSTFLIDRWGFVRKEWRRVKVEGHVQEVKEALDRLIEEDLSLNKHIEWRRARRALKKDRVPREELELLIKAAHLAPSCMNNQPWRFVVVDEEELLKKIHEALPGGNYWMKNAPALIAVHSKKDFDCALPDNRDYFLFDTGLAVGNLLVQATQMGLVAHPVAGYDPVKVKEILKIPEDHVLITLIAVGYLGDESELSEKHRELERSERVRKELSEIVRWNL”, the “soluble on expression in E. coli” value is reported as “soluble”. For “MDASKSLPIRKHTTLLNRLPETRFATQLDKAKANWIVFAEYLSPRHFEDIDFFTGFYNPVLETWKVGQYEVALMAGELTSQHETILKSLNIDYASLNEVPDLSAPG”, the “soluble on expression in E. coli” value was “not soluble”. In the case of “MSLIPVVLSGGAGTRLWPVSREGQPKPFMRLPDGQTLLGKTYRRAAGLLAGHGEIVTVTNREHYFQSKDQFHAARLGRHRGHFILEPTGRNTAPAIAVAALGLQAEHGDAAVLVVMPADHLIRNEEAFREAVGHAARLAVAGHLVTFGVVPDAAETGFGYIELGDRLDEQGAAKVRRFVEKPDEETRRRYVESGGFLWNSGMFCFTASTLVDELAQHAPALLEQARACLAASAAVKMADGIQHELAGEGFAALPDISIDYALMERSARVAVVPAAFDWSDIGSWGAMSALLDADAEGNRGSGDTLFVDTRNTFVQSDGRLVATVGVDDLVVVDTSDALLIARADRVQEVRRVVQRLKDERHEAYRLHRTVNRPWGSYTVLEEGPRFKIKRIVVRPGERLSLQMHHHRSEHWIVVQGMARVTNGDGARLVNSNESTYIPAGHRHRLENPGVIDLVMIEVQSGEYLGEDDIVRFEDQYGREGHHHHHH”, the “soluble on expression in E. coli” value is reported as “not soluble”. For “MGDWMIENKVRDVVKKLKPYVPGKSKEEIARAYGIKPEDIIKLGSNENPWGPSPKIKEKILDEIDKIHQYPEPVNPILMKELSKFLNVDEENIIVGGDGADEIIDTIFRTFVDDGDEVIIPIPTFTQYRVSATIHNAKIKYAKYDKEKDFKLNVESVLNNITDKTKVIFLCTPNNPTGNIIENRDVERVINETDALVVIDHAYIEYAKKEYDWTQKAPEYDNVIVLRTFSKVFGLAGMRVGYGVANKKIIDYMMRVKPIFSLTRLSQVCAITALRDREFFERCVRDGIKSREMLYNGLKKFKDIKVYPSEANYLLVELKTMKAKEFCEELLKRGVIVRDCTSFDGLGDNYVRVSIGTFEEVERFLKILEEIIS”, the “soluble on expression in E. coli” value was “not soluble”. With “MGSDKIHHHHHHCSDDDSVNEWDMSYVSLLPADYLRPTPSFTLKHVEEEGIEGSVEFQFMATTQKAVTQDINVHYSVTCDGIDANKINLSAKNLLIKAGSTASEPITLSITDWKYLENTKEALEYTLKIKIADIESTSAEVTNAAYYQEIVLKISKTAEKKKESVLLTNVKDWIFTFMTGVENSASNSVAGTGTNDVATNGVPFWLTVDFKEVKNVTGVQTTHWGAGYAPSKVEIFSSENGDDWVSIGQWDTKGRTQTITFDERVKTRYLKYQMITVPSRVDITRFYIYAW” the “soluble on expression in E. coli” value was “not soluble”. For “MGSDKIHHHHHHMTKKTGFFKRLKALELPQKQLFAIALCQRMLPNYQLFSEVCEFGDPAVLNTVLELLWQSQYDNKLKFNIDVHLQRLEDNTPDPVDFEAYGVYPAMDAVVALSTLLSAIQDKNEEDIINISKLSSSTVANYIEAISDVDLVDDALDDFVFAHEVMEEEKELQNSLLEIIEENPKITAELVKGLRKDIIEAGVSNIGISIA”, the “soluble on expression in E. coli” value was “not soluble”. With “MGSDKIHHHHHHMDEVSVWRRAWTYVVTTLAQSLPNRCLLCHQTVIEGSGVCSLCLQRCLYHGPVCLGCGRSLVNDGAFCGACRVLGALPVIAPCSYHQGLGASIAAIKYQGQFAALDVLCRALMARVTQLTEEGEIPPVSLLLPVPLHPKRLKTRGFNQAYEIALLLSKLSGIPLCDDLLRRRRDTQPQAGLTGKARRKNLLGAFELTGSCHQGSVALVDDVVTTGSTANEIATMLQLQGVRVQVWCLARAEAPGLLDTFS” the “soluble on expression in E. coli” value was “not soluble”. For “MGSDKIHHHHHHMRPATALSVTACGPVSTSRPRAASRAAIRLSSGERRFLIDIDVSKPRLRPMTAMTPTLALERSAASGKVAPTPADLSITVRDRRFGRNSPPGRWWLAGDPVATAWHNALSATFPRGEAFFIEAVKAHREGASPKLEAEIRAFVKQEINHTREHIAFNRAAENAGYDIARIDKRVEEMLALTKDRPVILNLAATMALEHYTAMMAHEFLANPAHFAGAEQEAADMWRWHAIEEIEHKGVAYDTWLHATRDWSRWKRWKVKSLMMVVVTKNFITHRVEDTLDLLAQDGLTGAKWKWRLAAYLLWKPGVIRRILPAWLGYFLPGFHPWKHDDRALIGKADSEFTDAVMPG”, the “soluble on expression in E. coli” value was “not soluble”. For “MNLIPQDVLKKYLLPIRDLATSTFVFKKKYTRECQRSTPRNFINQFLLLFLKVPFSLLQELKLSKMLEIDKDKKVLIGCLAGSFLFYHTARQIYSYMSVKPREWVPVGVVKSLHIFPIKSCKSVDVFAFKCTKLGPVMGDLEDRAFMLVEESTGKFITARQKPKLVHVENYMTDGMLEVTVPGQPKLSVDLRKVLQNKRTIRATLFKNLKQDGYDCGDEVAKLLSDYIEEPNYRLIFYKEGLYTERTVIPDDQWWNNPVPKRNDDSGFTDLAPFHIATDASLKVLNEKLDNKITMRYFRPSIYIEGCAAWDEDKWAEIRIGDAHLECFAPCTRCVLTTVDPVKGEMSKEMQPLKKLREFRLVPDGKMRKVHMESPVFGVYAGLVNEGYIHTGQTVYVRYKPTAF”, the “soluble on expression in E. coli” value was “not soluble”. In the case of “MPRTHGYAPIGKRCHGKCNWHARGRINVIGALIGKCLLTVGLFKNNIDADTFLGWTIHDLLPKLPPASIVVMDNATFRKRQDIQNVITRGGHTLEYLPAYSPDLNPIEHKWAQTKAVRKQQNQTVEQLFKIESFYVT”, the “soluble on expression in E. coli” value is reported as “not soluble”.
